The RNAGym collection of RNA variant scans (doi:10.7554/elife.90254)

B1: OR4K15 (parent)
chain: GUUAACGGUCAUAGGCCAUGGAAACUAGGAGCACCAUUUCGCUGCCAGUGAAGAAAUGAACAAAGAAAAUCUGGGCCAGGCAGGCAUCAAAAGAAAUAGUCUUGCGCUCAACCAGAAAGUCUGUAAUCAUUUUAAGGGUA

Variants of: B1
Experiment: self-cleavage, relative activity (ratio to wild type); higher = more cleavage; in vitro, sequencing; the parent is a self-cleaving ribozyme

Variant	self-cleavage
A33G A66U	0.35
A18U A94G	1.06
U57C A110G	0.1
A69C A126G	0.51
A54G U97C	1.37
A89U U102C	1.9
A78U A95U	0.2
A55U A118G	1.43
G31U	1.7
A68G A117U	0.82
A33U U43C	0.26
A68G G136C	1.93
A96G A126U	1.49
A59G U72A	0.05
U49A A118G	1.31
U49G A67C	1.97
U3G A110U	1.67
U49A U72C	0.16
U12C A86G	0.8
A47G A86C	1.04
U37C U102C	1.49
G65A A91G	0.96
G1U C105A	0.03
A95G C105U	0.43

Variant	self-cleavage
U19C A30U	1.02
U2C A111U	0.27
A23U A117U	0.6
A91G A134G	0.97
A59U U100C	2.73
A63U U132C	1.98
G8A A134G	1.52
A47G A92C	0.42
A36G A129G	1.3
U9A A111G	0.03
A4G A47C	0.42
U100C A114U	0.16
U3G A52G	0.67
A116U U127G	0.11
C45G A90G	1.2
A24G A82U	0.31
U70C U127A	0.95
A5G A69G	1.54
C40A U122C	1.07
A114G A117U	0.4
U97A U133C	2.13
U12C A22G	0.98
A67G C113U	0.17
G73A C88U	0.17

Variant	self-cleavage
A82G G138C	0.66
A18G A59C	1.7
U130C U132A	1.4
U43G A114U	0.1
A98U A118G	1.83
A54G U131C	1.3
A63G A110U	1.88
G53A A86G	1.83
A60C A111G	0
U37C G73A	0.19
A33C U49C	1.93
U38C G79A	0.22
A11G A24U	0.53
G29A U108C	0.03
A5G A60G	1.08
A22G A135G	1.54
A11U A22G	1.53
A110C A134G	0.41
U37A U70C	1.21
A33U A51G	1.97
A11U A67G	1.5
U43C G58A	0.64
U49C G123U	0.88
A36U A90U	1.74

Variant	self-cleavage
U72A U127G	0.23
U43C A52U	1.51
U9C U102A	1.31
U19C U72A	0.33
A125G G137U	0.98
A126G A140U	1.58
A22G U97A	0.96
A52C A89G	1.02
A89U A98G	0.66
A24G A68C	1.49
U49C U100A	0.63
A13G A86G	0.89
A51U A96G	1.32
C10A A110G	0.31
A18G A114U	0.14
A36G A63G	1.32
G80U	0.1
A33G U124C	0.63
A91U U127C	0.87
A59G U87G	0.3
U37C G44A	1.56
C40U A51U	2
G1A A18C	1.98
A90C U100A	0.92

Variant	self-cleavage
A68G A111U	0.21
A59U	1.14
U2A A24C	0.96
A24C A60G	1.17
A33G A56G	0.77
A54G U70C	0.61
A60G A135G	1.71
A117G U120A	2.78
U57G A117G	2.08
A36U A95G	2.18
U108C U120C	0.01
A4G A30G	0.64
A118G U120C	0.44
A36U U102C	2.06
A22G A36G	1.4
A59U U103G	0.04
A98G A126G	0.34
A63U A94U	1.96
A56G A60G	0.63
A91G A125G	0.16
A33G A36G	1.15
A24U A126G	1.15
A54G U124A	0.9
A89G G106A	0.01

Variant	self-cleavage
A11U A68G	0.99
A52U A94U	1.94
A18G A95G	1.38
U19G A60G	1.61
A63G U130C	1.13
A11G A47U	0.98
A52U U131C	0.4
A82U A90G	0.33
A78U U100C	1.1
A89G A95U	1.95
U122A C128A	1.32
A62G A78G	0.27
U43A A68U	1.7
U26C A66G	0.9
U2G U19A	0.72
U38A G74A	0.21
U102A U127C	0.74
U100C U139A	2.28
A11G A111U	0.11
U39C U97C	1.29
A52G A67G	1.13
A90U A118G	1.24
U70G U102C	0.64
A95G U103G	0.06

Variant	self-cleavage
C17U A66G	1.68
U26A A118G	0.34
U9C U120C	1.66
U2C A47U	0.86
U2C A47G	1.28
A4G G75A	0.33
C71A A82G	0.26
G74A U139C	0.19
A60G U102A	0.99
A4U U120C	0.54
G7A A13U	1.19
U19C A24G	1.28
A86G A126G	1.18
A5G A18U	1.12
U2C U108A	0.01
A47U A82C	0.21
U38C A82G	0.57
A86G U127C	1.22
A134U A135U	1.42
A24G A111C	0.02
U120C A129U	0.78
U43C C45A	1.19
A24C A51G	1.23
